What was measured:
Lhr = Lhr (Escherichia coli MG1655, UniProt P30015 1-1538); experiment: EMSA; 5 mM EDTA; 12.5-200 nM protein, 12.5 nM DNA; 20 mM Tris pH 7.5, 10% glycerol, 100 ug/mL BSA, 25 mM DTT, 5 mM EDTA, 12.5 nM Cy5-DNA; 37 C 20 min then ice 10 min; 5% acrylamide TBE gel; settings: protein: recombinant; tags: His6; label: 5' Cy5; single strand
Lhr-CTD = molecular target: T1, Lhr-CTD (Escherichia coli MG1655, UniProt P30015 876-1538); experiment: EMSA; 5 mM EDTA; 12.5-200 nM protein, 12.5 nM DNA; no stable complex; 20 mM Tris pH 7.5, 10% glycerol, 100 ug/mL BSA, 25 mM DTT, 5 mM EDTA, 12.5 nM Cy5-DNA; 37 C 20 min then ice 10 min; 5% acrylamide TBE gel; settings: protein: recombinant; tags: pNH-TrxT vector (GU269914.1); label: 5' Cy5; single strand
T1 sequence: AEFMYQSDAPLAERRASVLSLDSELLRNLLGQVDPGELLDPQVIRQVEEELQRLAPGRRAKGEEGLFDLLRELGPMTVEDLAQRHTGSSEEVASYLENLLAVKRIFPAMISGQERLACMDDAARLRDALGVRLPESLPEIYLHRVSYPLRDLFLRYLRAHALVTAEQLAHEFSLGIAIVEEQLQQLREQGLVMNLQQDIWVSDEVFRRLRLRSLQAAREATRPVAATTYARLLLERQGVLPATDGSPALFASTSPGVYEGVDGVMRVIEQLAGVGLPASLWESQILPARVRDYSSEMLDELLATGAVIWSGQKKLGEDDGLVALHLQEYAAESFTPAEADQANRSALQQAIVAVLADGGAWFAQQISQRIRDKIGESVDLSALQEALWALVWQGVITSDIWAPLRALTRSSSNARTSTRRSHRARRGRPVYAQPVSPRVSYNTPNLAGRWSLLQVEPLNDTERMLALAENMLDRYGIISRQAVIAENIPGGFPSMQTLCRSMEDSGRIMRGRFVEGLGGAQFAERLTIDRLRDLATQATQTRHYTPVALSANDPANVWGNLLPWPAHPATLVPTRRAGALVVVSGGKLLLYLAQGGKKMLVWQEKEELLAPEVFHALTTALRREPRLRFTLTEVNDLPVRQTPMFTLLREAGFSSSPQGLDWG

TCGGATCCTCTAGACAGCTCCATGATCACTGGCACTGGTAGAATTCGGC (ssDNA) [Cy5-ssDNA (EMSA)]: binds (Lhr); no binding (Lhr-CTD).

From PMC10953399, “Escherichia coli DNA repair helicase Lhr is also a uracil‐DNA glycosylase”
